Results from patent publication US20250171562A1.

The binders below were run against mixture of three Der p 2 specific recombinant human IgE clones H10, H12, P4E (human) (UniProt P01854) (assay: RBL-SX38 IgE displacement, FACS).
Sequence of mixture of three Der p 2 specific recombinant human IgE clones H10, H12, P4E (human) (P01854 other isoform, or with tags, fused parts or gaps): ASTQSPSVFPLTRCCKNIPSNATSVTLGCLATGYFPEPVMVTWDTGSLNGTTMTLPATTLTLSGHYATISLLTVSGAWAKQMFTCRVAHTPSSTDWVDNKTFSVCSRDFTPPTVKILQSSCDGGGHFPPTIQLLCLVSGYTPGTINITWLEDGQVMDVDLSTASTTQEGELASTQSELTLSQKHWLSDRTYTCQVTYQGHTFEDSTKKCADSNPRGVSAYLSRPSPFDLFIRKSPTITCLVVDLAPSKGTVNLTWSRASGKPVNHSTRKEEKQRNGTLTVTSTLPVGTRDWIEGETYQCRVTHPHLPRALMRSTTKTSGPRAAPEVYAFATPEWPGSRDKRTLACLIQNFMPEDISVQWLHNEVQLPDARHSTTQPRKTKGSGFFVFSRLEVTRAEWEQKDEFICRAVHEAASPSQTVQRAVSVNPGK

Row | Binder | Max effect/effect 1 µM | EC50
1 | NIgG4B1A1(G4S)3 (Fc fusion) chain 1: QVQLQESGGGLVQTGGSLRLSCAVHGRTFSNTGMGWFRQAPGNERQFVAIISPSGTSTYYADSVKGRFTISRDPAKNTVYLQMNSLKMDDTAVYYCAASYGSNWSTLRHQRRNEYDAWGQGTQVAVSGGGGSGGGGSGGGGSGPPCPPCPAPEFLGGPSVFLFPPKPKDTLMISRTPEVTCVVVDVSQEDPEVQFNWYVDGVEVHNAKTKPREEQFNSTYRVVSVLTVLHQDWLNGKEYKCKVSNKGLPSSIEKTISKAKGQPREPQVYTLPPCQEEMTKNQVSLWCLVKGFYPSDIAVEWESNGQPENNYKTTPPVLDSDGSFFLYSRLTVDKSRWQEGNVFSCSVMHEALHNHYTQKSLSLSLGK chain 2: EVQLLESGGGLVQPGGSLRLSCAASGFTFGNYDMAWVRQAPGKRPEWVSSIDTGGDITHYADSVKGRFTISRDNAKNTLYLQMNSLRPEDTAVYWCATDEEYALGPNEFDYYGQGTLVTVSSGGGGSGGGGSGGGGSGPPCPPCPAPEFLGGPSVFLFPPKPKDTLMISRTPEVTCVVVDVSQEDPEVQFNWYVDGVEVHNAKTKPREEQFNSTYRVVSVLTVLHQDWLNGKEYKCKVSNKGLPSSIEKTISKAKGQPREPQVCTLPPSQEEMTKNQVSLSCAVKGFYPSDIAVEWESNGQPENNYKTTPPVLDSDGSFFLVSRLTVDKSRWQEGNVFSCSVMHEALHNHYTQKSLSLSLGK | 99% | 2.6 nM
2 | A1A1(G4S)4 (VHH) EVQLLESGGGLVQPGGSLRLSCAASGFTFGNYDMAWVRQAPGKRPEWVSSIDTGGDITHYADSVKGRFTISRDNAKNTLYLQMNSLRPEDTAVYWCATDEEYALGPNEFDYYGQGTLVTVSGGGGSGGGGSGGGGSGGGGSEVQLLESGGGLVQPGGSLRLSCAASGFTFGNYDMAWVRQAPGKRPEWVSSIDTGGDITHYADSVKGRFTISRDNAKNTLYLQMNSLRPEDTAVYWCATDEEYALGPNEFDYYGQGTLVTVS | 45% | 402 nM
3 | NIgG4A1A1(G4S)1 (Fc fusion) chain 1: EVQLLESGGGLVQPGGSLRLSCAASGFTFGNYDMAWVRQAPGKRPEWVSSIDTGGDITHYADSVKGRFTISRDNAKNTLYLQMNSLRPEDTAVYWCATDEEYALGPNEFDYYGQGTLVTVSSGGGGSGPPCPPCPAPEFLGGPSVFLFPPKPKDTLMISRTPEVTCVVVDVSQEDPEVQFNWYVDGVEVHNAKTKPREEQFNSTYRVVSVLTVLHQDWLNGKEYKCKVSNKGLPSSIEKTISKAKGQPREPQVYTLPPCQEEMTKNQVSLWCLVKGFYPSDIAVEWESNGQPENNYKTTPPVLDSDGSFFLYSRLTVDKSRWQEGNVFSCSVMHEALHNHYTQKSLSLSLGK chain 2: EVQLLESGGGLVQPGGSLRLSCAASGFTFGNYDMAWVRQAPGKRPEWVSSIDTGGDITHYADSVKGRFTISRDNAKNTLYLQMNSLRPEDTAVYWCATDEEYALGPNEFDYYGQGTLVTVSSGGGGSGPPCPPCPAPEFLGGPSVFLFPPKPKDTLMISRTPEVTCVVVDVSQEDPEVQFNWYVDGVEVHNAKTKPREEQFNSTYRVVSVLTVLHQDWLNGKEYKCKVSNKGLPSSIEKTISKAKGQPREPQVCTLPPSQEEMTKNQVSLSCAVKGFYPSDIAVEWESNGQPENNYKTTPPVLDSDGSFFLVSRLTVDKSRWQEGNVFSCSVMHEALHNHYTQKSLSLSLGK | 44% | 
4 | NIgG4A1A1(RS) (Fc fusion) chain 1: EVQLLESGGGLVQPGGSLRLSCAASGFTFGNYDMAWVRQAPGKRPEWVSSIDTGGDITHYADSVKGRFTISRDNAKNTLYLQMNSLRPEDTAVYWCATDEEYALGPNEFDYYGQGTLVTVSSRSGPPCPPCPAPEFLGGPSVFLFPPKPKDTLMISRTPEVTCVVVDVSQEDPEVQFNWYVDGVEVHNAKTKPREEQFNSTYRVVSVLTVLHQDWLNGKEYKCKVSNKGLPSSIEKTISKAKGQPREPQVYTLPPCQEEMTKNQVSLWCLVKGFYPSDIAVEWESNGQPENNYKTTPPVLDSDGSFFLYSRLTVDKSRWQEGNVFSCSVMHEALHNHYTQKSLSLSLGK chain 2: EVQLLESGGGLVQPGGSLRLSCAASGFTFGNYDMAWVRQAPGKRPEWVSSIDTGGDITHYADSVKGRFTISRDNAKNTLYLQMNSLRPEDTAVYWCATDEEYALGPNEFDYYGQGTLVTVSSRSGPPCPPCPAPEFLGGPSVFLFPPKPKDTLMISRTPEVTCVVVDVSQEDPEVQFNWYVDGVEVHNAKTKPREEQFNSTYRVVSVLTVLHQDWLNGKEYKCKVSNKGLPSSIEKTISKAKGQPREPQVCTLPPSQEEMTKNQVSLSCAVKGFYPSDIAVEWESNGQPENNYKTTPPVLDSDGSFFLVSRLTVDKSRWQEGNVFSCSVMHEALHNHYTQKSLSLSLGK | 45% | 
5 | A1D2(G4S)4 (bispecific antibody) EVQLLESGGGLVQPGGSLRLSCAASGFTFGNYDMAWVRQAPGKRPEWVSSIDTGGDITHYADSVKGRFTISRDNAKNTLYLQMNSLRPEDTAVYWCATDEEYALGPNEFDYYGQGTLVTVSGGGGSGGGGSGGGGSGGGGSDVQLQESGGGLVEAGGSLRLSCVASGRTFSGWSMGWFRQAPGKEREFVAAISWVGSWIGGTVYSNSVKGRFTISRDNARTTVYLQMNSLKPEDTAVYFCAAANSETPRIFASEYDYWGQGTQVTVS | 98% | 4.3 nM
6 | NIgG4B1A1(G4S)2 (Fc fusion) chain 1: QVQLQESGGGLVQTGGSLRLSCAVHGRTFSNTGMGWFRQAPGNERQFVAIISPSGTSTYYADSVKGRFTISRDPAKNTVYLQMNSLKMDDTAVYYCAASYGSNWSTLRHQRRNEYDAWGQGTQVAVSGGGGSGGGGSGPPCPPCPAPEFLGGPSVFLFPPKPKDTLMISRTPEVTCVVVDVSQEDPEVQFNWYVDGVEVHNAKTKPREEQFNSTYRVVSVLTVLHQDWLNGKEYKCKVSNKGLPSSIEKTISKAKGQPREPQVYTLPPCQEEMTKNQVSLWCLVKGFYPSDIAVEWESNGQPENNYKTTPPVLDSDGSFFLYSRLTVDKSRWQEGNVFSCSVMHEALHNHYTQKSLSLSLGK chain 2: EVQLLESGGGLVQPGGSLRLSCAASGFTFGNYDMAWVRQAPGKRPEWVSSIDTGGDITHYADSVKGRFTISRDNAKNTLYLQMNSLRPEDTAVYWCATDEEYALGPNEFDYYGQGTLVTVSSGGGGSGGGGSGPPCPPCPAPEFLGGPSVFLFPPKPKDTLMISRTPEVTCVVVDVSQEDPEVQFNWYVDGVEVHNAKTKPREEQFNSTYRVVSVLTVLHQDWLNGKEYKCKVSNKGLPSSIEKTISKAKGQPREPQVCTLPPSQEEMTKNQVSLSCAVKGFYPSDIAVEWESNGQPENNYKTTPPVLDSDGSFFLVSRLTVDKSRWQEGNVFSCSVMHEALHNHYTQKSLSLSLGK | 99% | 3 nM

Further lines, results first:

Row | Max effect/effect 1 µM | EC50 | Binder
7 | 22% |  | sdAb D2 (VHH) VHH: DVQLQESGGGLVEAGGSLRLSCVASGRTFSGWSMGWFRQAPGKEREFVAAISWVGSWIGGTVYSNSVKGRFTISRDNARTTVYLQMNSLKPEDTAVYFCAAANSETPRIFASEYDYWGQGTQVTVS
8 | 0% |  | sdAb E1 (VHH) VHH: DVQLQESGGGLVQAGGSLRLSCLASGRTFTTTSGYNMGWFRQAPGKEREFVAGIKWVSGSNRAYAESVKGRFTISRDNAKNTVYLQMNSLKPEDTAVYYCAAATGQSYVPIREYEYVYWGQGTQVTVS
9 | 17% |  | sdAb F4 (VHH) VHH: DVQLQESGGGLVQAGGSLRLSCAVSGLSFSSMGWFRQPPGKEREFVAAISLYSGSTYYADSVKGRFTISSDNAKSTVYLQMNSLKPEDAAVYFCAADRQRTWSTFYASRQATYNYWGQGTQVTVTS
10 | 7% |  | sdAb B3 (VHH) VHH: DVQLQESGGGLVQAGGSLRLSCAASGFIFRLAGMSWVRQAPGKGFEWVSGITMDGSTTNYADSVKGRFTISRDNSKNRLYLQMNSLKPEDTAVYYCARGAKGGYNDPRGQGTQVTVS
11 | 54% |  | sdAb B1 (VHH) VHH: QVQLQESGGGLVQTGGSLRLSCAVHGRTFSNTGMGWFRQAPGNERQFVAIISPSGTSTYYADSVKGRFTISRDPAKNTVYLQMNSLKMDDTAVYYCAASYGSNWSTLRHQRRNEYDAWGQGTQVAVS
12 | 99% | 3 nM | NIgG4B1A1(RS) (Fc fusion) chain 1: QVQLQESGGGLVQTGGSLRLSCAVHGRTFSNTGMGWFRQAPGNERQFVAIISPSGTSTYYADSVKGRFTISRDPAKNTVYLQMNSLKMDDTAVYYCAASYGSNWSTLRHQRRNEYDAWGQGTQVAVSRSGPPCPPCPAPEFLGGPSVFLFPPKPKDTLMISRTPEVTCVVVDVSQEDPEVQFNWYVDGVEVHNAKTKPREEQFNSTYRVVSVLTVLHQDWLNGKEYKCKVSNKGLPSSIEKTISKAKGQPREPQVYTLPPCQEEMTKNQVSLWCLVKGFYPSDIAVEWESNGQPENNYKTTPPVLDSDGSFFLYSRLTVDKSRWQEGNVFSCSVMHEALHNHYTQKSLSLSLGK chain 2: EVQLLESGGGLVQPGGSLRLSCAASGFTFGNYDMAWVRQAPGKRPEWVSSIDTGGDITHYADSVKGRFTISRDNAKNTLYLQMNSLRPEDTAVYWCATDEEYALGPNEFDYYGQGTLVTVSSRSGPPCPPCPAPEFLGGPSVFLFPPKPKDTLMISRTPEVTCVVVDVSQEDPEVQFNWYVDGVEVHNAKTKPREEQFNSTYRVVSVLTVLHQDWLNGKEYKCKVSNKGLPSSIEKTISKAKGQPREPQVCTLPPSQEEMTKNQVSLSCAVKGFYPSDIAVEWESNGQPENNYKTTPPVLDSDGSFFLVSRLTVDKSRWQEGNVFSCSVMHEALHNHYTQKSLSLSLGK
13 | 12% |  | sdAb D1 (VHH) VHH: DVQLQESGGGLVQAGGSLRLSCAASGLTFSRCDMGWFRQAPGKEREFVARISANGASTHYADFVKGRFTISRDNAKNTVYLQMNYLKPEDTAVYICAAARVPVTWQLYDYWGQGTQVTVS
14 | 23% |  | sdAb B2 (VHH) VHH: QVQLVESGGGLVQAGGSLRLSCAVFGSTFSNNVADWYRQAPGKQRELVARISASGATREYGDSVKGRFTISRDDAKNTMYLQMNNLKPEDTAVYRCHKIEWEDLSRKDYWGQGTQVTVS
15 | 5.6% |  | sdAb F3 (VHH) VHH: DVQLQESGGGLVQAGGSLKLSCAASRGSLSRWDVAWFRQAPGKERSFVTRISWSGTTSYYADAVKGRFAISRDNAKNTVYLQMNSLKPEDTAVYYCAVALYGNRGYYDVNAHSYWGQGTQVTVS
16 | 26% |  | sdAb F6 (VHH) VHH: DVQLQESGGGLVQAGGSLRLSCAASGLTFGSYDMGWYRQAPGKQRELVGRIRNDGITYYADSVKGRFTMSRDNAKNTVYLQMNSLKPEDTAVYYCAADGTGLGHYDYWGQGTQVTVS
